Source: publication PMC9418332, “Perforin-2 clockwise hand-over-hand pre-pore to pore transition mechanism” (Nature Communications, 2022)

Target: the molecule itself
Test: high-speed atomic force microscopy (HS-AFM); pre-pore rings on supported E. coli lipid bilayer, buffer acidified with HCl to ~pH 4.0 in the fluid cell; imaging at 200 ms temporal resolution, room temperature; pre-pore ring openings and pore arcs

B1: Ectodomain of mPFN2 (Perforin-2) (domain or fragment, mouse (printed as mPFN2), UniProt A1L314 20-652, looked up)
chain: DKPLGETGTTGFQICKNALKLPVLEVLPGGGWDNLRNVDMGRVMDLTYTNCKTTEDGQYIIPDEVYTIPQKESNLEMNSEVLESWMNYQSTTSLSINTELALFSRVNGKFSTEFQRMKTLQVKDQAVTTRVQVRNRIYTVKTTPTSELSLGFTKALMDICDQLEKNQTKMATYLAELLILNYGTHVITSVDAGAALVQEDHVRSSFLLDNQNSQNTVTASAGIAFLNIVNFKVETDYISQTSLTKDYLSNRTNSRVQSFGGVPFYPGITLETWQKGITNHLVAIDRAGLPLHFFIKPDKLPGLPGPLVKKLSKTVETAVRHYYTFNTHPGCTNVDSPNFNFQANMDDDSCDAKVTNFTFGGVYQECTELSGDVLCQNLEQKNLLTGDFSCPPGYSPVHLLSQTHEEGYSRLECKKKCTLKIFCKTVCEDVFRVAKAEFRAYWCVAAGQVPDNSGLLFGGVFTDKTINPMTNAQSCPAGYIPLNLFESLKVCVSLDYELGFKFSVPFGGFFSCIMGNPLVNSDTAKDVRAPSLKKCPGGFSQHLAVISDGCQVSYCVKAGIFTGGSLLPVRLPPYTKPPLMSQVATNTVIVTNSETARSWIKDPQTNQWKLGEPLELRRAMTVIHGDSNGMSGG
notes: Perforin-2 (PFN2, MPEG1), mouse (printed as mPFN2), ectodomain, UniProt A1L314 residues 20-652; Applied as monomers (0.043 mg/ml) and self-assembles on the support; The 1D4 tag is inferred from the resin; also called MPEG1; source: HEK293T or HEK293S cells, transient transfection; purified from the media using anti-1D4 antibody-coupled agarose resin
  stoichiometry N: 16 subunits
